T1: MMP-2 (Homo sapiens, UniProt P08253)
T1 construct: purchased Sigma-Aldrich, USA
T1 sequence (P08253 110-660): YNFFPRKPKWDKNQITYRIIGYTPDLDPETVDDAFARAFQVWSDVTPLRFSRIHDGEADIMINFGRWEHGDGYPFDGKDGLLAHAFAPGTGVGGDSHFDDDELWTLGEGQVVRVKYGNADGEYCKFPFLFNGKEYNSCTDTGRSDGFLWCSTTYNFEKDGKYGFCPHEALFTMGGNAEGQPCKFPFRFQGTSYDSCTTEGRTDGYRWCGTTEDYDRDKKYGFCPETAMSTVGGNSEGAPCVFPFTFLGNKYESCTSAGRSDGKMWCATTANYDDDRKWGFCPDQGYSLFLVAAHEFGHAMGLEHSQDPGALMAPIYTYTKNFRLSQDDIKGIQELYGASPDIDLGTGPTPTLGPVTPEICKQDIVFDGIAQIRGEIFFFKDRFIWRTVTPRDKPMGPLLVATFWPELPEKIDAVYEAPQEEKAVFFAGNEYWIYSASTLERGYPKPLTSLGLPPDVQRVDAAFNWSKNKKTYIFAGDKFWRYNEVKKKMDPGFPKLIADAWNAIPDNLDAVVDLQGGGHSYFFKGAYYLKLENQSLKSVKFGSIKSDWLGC


Experiments:
[1] = target: T1, MMP-2; experiment: Test of MMP-2 suppressor activity and specificity with AuNPs/MCH-gelatin sensing platform; type: biochemical; conditions: 37° C., 30 minutes; for suppression of MMP-2 activity (ratios A625/A525 versus control group): suppressor solution 10 mM, 0.5 μL MMP-2 (100 ng/μL), FIG. 6
Method: Buffer solutions containing different concentrations of ONO-4817 were added respectively into the solution of AuNPs/MCH-gelatin in a cuvette, and the concentrations of the solutions of AuNPs/MCH-gelatin were adjusted to give an OD525=1.
(§1) Then, a solution of a highly concentrated proteinase suppressor ONO-4817 or A1AT (10 mM) was added to give a mixture. The mixture was placed in a water bath at 37° C. for 30 minutes to allow the reaction. A change in wavelength was measured by a spectrophotometer, and the ratios (A625/A525) of the values measured at wavelengths of 625 nm and 525 nm were calculated.

[2] = system: trypsin; experiment: Specificity test of proteinase suppressors with AuNPs/MCH-gelatin sensing platform, trypsin; type: biochemical; conditions: suppressor solution 10 mM; 0.5 μL trypsin (100 ng/μL); 37° C., 30 minutes; FIG. 6
Method: as §1

[3] = target: T1, MMP-2; conditions: read-out: enzyme inhibition constant (Ki); cited from earlier work
[4] = system: AuNPs/MCH-gelatin; experiment: Activity test of proteinase (trypsin) on AuNPs/MCH-gelatin; type: biochemical; conditions: 37° C., 10 minutes
Text: Different concentrations of trypsin were used for detection.
Ratios (A625/A525) of the measured values at wavelengths of 625 nm and 525 nm are used as a basis for detection, so as to correct the error of waveform overlapping caused by changes to the sizes of the AuNPs. The ratios (A625/A525) of the groups are in the following: 0.2127 for A, 0.2131 for B, 0.2134 for C, 0.2554 for D, 0.4236 for E, 0.5674 for F, 0.6114 for G and 0.6484 for H. The ratios and the trypsin concentrations are shown in FIG. 3I, wherein when the trypsin concentrations are from 1.25×10^−1 U to 1.25×10^2 U, the wavelength changes and the trypsin concentrations are positively associated.

suppression of MMP-2 activity (waveform change, A625/A525) ([1]; different concentrations of ONO-4817 (0.0125 to 512 nM), 0.5 μL MMP-2 (100 ng/μL) in 200 μL AuNPs/MCH-gelatin, FIG. 5)	suppression of MMP-2 activity (ratios A625/A525 versus control group) [1]	ratio A625/A525 ([4]; group B, 1.25×10^−3 U of trypsin)	ratio A625/A525 ([4]; group C, 1.25×10^−2 U of trypsin)	ratio A625/A525 ([4]; group D, 1.25×10^−1 U of trypsin)	ratio A625/A525 ([4]; group E, 1.25×10^0 U of trypsin)	ratio A625/A525 ([4]; group F, 1.25×10^1 U of trypsin)	ratio A625/A525 ([4]; group G, 1.25×10^2 U of trypsin)	ratio A625/A525 ([4]; group H, 1.25×10^3 U of trypsin)	Molecule	suppression of trypsin activity (ratios A625/A525 versus control group) [2]	Ki [3]
can suppress the activity of MMP-2	can suppress the activity of MMP-2	–	–	–	–	–	–	–	CCOCOC[C@H](C[C@H](C)C(=O)NO)NC(=O)c1ccc(Oc2ccccc2)cc1 [ONO-4817]	significantly increase	0.72 nM
–	not suppressed	–	–	–	–	–	–	–	A1AT: trypsin suppressor; cannot suppress the activity of MMPs	can effectively suppress the activity of trypsin	–
–	–	0.2131	0.2134	0.2554	0.4236	0.5674	0.6114	0.6484	trypsin: proteinase detected by the sensing platform (protein, UniProt P00760 24-246, looked up) Serine protease 1: IVGGYTCGANTVPYQVSLNSGYHFCGGSLINSQWVVSAAHCYKSGIQVRLGEDNINVVEGNEQFISASKSIVHPSYNSNTLNNDIMLIKLKSAASLNSRVASISLPTSCASAGTQCLISGWGNTKSSGTSYPDVLKCLKAPILSDSSCKSAYPGQITSNMFCAGYLEGGKDSCQGDSGGPVVCSGKLQGIVSWGSGCAQKNKPGVYTKVCNYVSWIKQTIASN	–	–

From patent US20100311605A1, “SENSING PLATFORM” (NATIONAL CHIAO TUNG UNIVERSITY, priority 2009, published 2010)
